Experiment [1] deals with T1, human IL2Rβ (human, UniProt P14784 27-239).
T1 construct: also called IL2β; CD122
T1 sequence (looked up): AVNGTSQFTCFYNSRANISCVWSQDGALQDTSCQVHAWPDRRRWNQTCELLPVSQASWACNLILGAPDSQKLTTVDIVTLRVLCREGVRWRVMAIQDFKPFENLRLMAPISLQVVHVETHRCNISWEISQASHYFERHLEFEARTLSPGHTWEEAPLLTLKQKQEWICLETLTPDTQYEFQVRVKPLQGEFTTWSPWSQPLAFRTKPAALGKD
The experiment is described as follows: SPR, receptor captured on Protein A chip, E. coli-produced IL2. How it is done: (§1) The assay was run with Biacore T200 control software version 2.0. For each cycle, 1 μg/mL of human IL2Rβ or IL2Rα was captured for 60 seconds at flow rate of 10 μL/min on flow cell 2 in 1×HBST buffer on Protein A sensor chip. Two-fold serial diluted HIS tag purified engineered IL2 mutant was injected onto both reference flow cell 1 and IL2Rβ or IL2Rα captured flow cell 2 for 150 seconds at flow rate of 30 μL/min followed by washing for 300 seconds. The flow cells were then regenerated with Glycine pH 2 for 40 seconds at a flow rate of 30 μL/mins. Eight concentration points from 0 to 100 nM were assayed for each IL2Rβ agonist clone 96-well plate format. The kinetics data was analyzed with Biacore T200 evaluation software 3000. The specific binding response unit was derived from subtraction of binding to reference flow cell 1 from target flow cell 2.
For orientation: In SPR one partner is held on a chip, and binding of the other changes the refractive index at the surface.

Experiment [2] addresses T2, human IL2Rα (human, UniProt P01589 22-213, limits assumed).
T2 construct: also called IL2α; CD25
T2 sequence (looked up): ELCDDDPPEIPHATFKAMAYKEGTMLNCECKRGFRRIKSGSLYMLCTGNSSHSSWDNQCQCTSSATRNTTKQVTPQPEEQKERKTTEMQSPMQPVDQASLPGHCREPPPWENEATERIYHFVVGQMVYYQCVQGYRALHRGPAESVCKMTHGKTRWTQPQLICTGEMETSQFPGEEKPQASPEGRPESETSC
The experiment is described as above. The procedure:
as §1

Experiment [3] concerns the target T2, human IL2Rα. The experiment is described as follows: SPR, IL2Rα captured on Protein A chip, IL2 at 100 nM. How it is done:
The binding kinetics of IL2Rα-reduced binding clones to IL2Rα was assessed utilizing SPR technology with a Biacore T200, software version 2.0. For each cycle, 1 ug/mL of human IL2Rα was captured for 60 seconds at a flow rate of 10 uL/min on flow cell 2 in 1×HBSP buffer on a Protein A sensor chip. 100 nM of each HIS and Flag tag purified IL2 mutant was injected onto both the reference flow cell 1 and IL2Rα captured flow cell 2 for 150 seconds at a flow rate of 30 uL/min followed by washing for 300 seconds. The flow cells were then regenerated with Glycine pH 2.0 for 60 seconds at a flow rate of 30 uL/min. A HBSP+ buffer was included with each sample as a baseline control. The assay was set up in a 96-well format. The kinetics data was analyzed with Biacore T200 evaluation software 3.0. The specific binding response unit was derived from subtraction of binding to reference flow cell 1 from IL2Rα flow cell 2 and subtraction of buffer control. […] Relative response (RU) was determined for each IL2Rα-reduced binding clone (FIG. 4, Table 3).

For experiment [4], the target named is T2, human IL2Rα. The experiment is described as follows: IL2Rα binding ELISA with E. coli culture supernatant of the clone; hFc bar as control (Example 2). For orientation: ELISA stands for enzyme-linked immunosorbent assay.
The target of experiment [5] is T1, human IL2Rβ. The experiment is described as follows: SPR, receptor captured on Protein A chip, mammalian-produced IL2. The procedure:
as §1

Experiment [6] deals with T2, human IL2Rα. The experiment is described as above. The procedure: as §1
Experiment [7] concerns the target T1, human IL2Rβ. The experiment is described as follows: ELISA, receptor coated, anti-human Fc HRP. How it is done:
(§2) For bivalent Fc-fusion proteins, human IL2Rα, and human IL2Rβ were each immobilized in a 384 well plate at final concentration of 2 μg/mL in 1×PBS in total volume of 25 μL per well. The plate was incubated overnight at 4° C. followed by blocking with 80 μL of superblock per well for 1 hour. The purified engineered IL2 mutant Fc fusion protein at 100 nM was 3-fold serial diluted 12 times. Each dilution was added to IL2Rα and IL2Rβ wells in parallel. The engineered IL2 mutant binding was detected by adding 50 μL of anti-human Fc HRP diluted at 1:5000 in 1×PBST. In between each step, the plate was washed 3 times with 1×PBST in a plate washer. The plate was then developed with 25 μl of TMB substrate for 5 mins and stopped by adding 25 μl of 2N sulfuric acid. The plate was read at OD450 nm Biotek plate reader and the EC50 was analyzed with Prism 8.1 software.

For experiment [8], the target named is T2, human IL2Rα. The experiment is described as follows: ELISA, receptor coated, anti-human Fc HRP. The procedure: as §2

Substitutions are numbered along the chain they refer to.

B1: EP002 (ligand)
chain: APTSSSTKKTQLQLEHLLLDLQMILNGINNYKNPKLTRMLTFKFYMPKKATELKHLQCLEEELKPLEEVLNLAQSKNFHLEPSDVISNINVLVQELKGSETTFMCEYADETATIVEFLNRWITFCQSIISTLT
notes: also called E002; not shown: C-terminal Flag and 6xHis tags
As usually defined, the Kd is the constant that tells how readily two partners part at equilibrium. Read a high Kd as a looser complex. One may read the koff as the rate constant with which the complex falls apart. Read a high koff as fast dissociation. Broadly, the kon is a measure of how fast the partners come together. For B1, in the experiment with human IL2Rβ [1], the Kd was found to be 2.37 nM, the off-rate constant (koff) was found to be 0.00273 s⁻¹, the kon was 1.15e+06 M⁻¹ s⁻¹ and the “relative activity IL2Rβ (KD: fold) against WT IL2” value (from here on “relative activity IL2Rβ (KD: fold)”) was 1830 fold. In the experiment with human IL2Rα [2], the equilibrium dissociation constant (Kd) amounted to 101 nM and the “relative activity IL2Rα (KD: fold) against WT IL2” value (“relative activity IL2Rα (KD: fold)” for short) is -10.6 fold.

B2: EP005 (ligand)
chain: B1 chain with E81T, P82A, S83E, I86V, S87T, N90T
notes: not shown: C-terminal Flag and 6xHis tags
Take B2: in the experiment with human IL2Rβ [1], the Kd is 0.885 nM, the dissociation rate constant (koff) is 0.0054 s⁻¹, the kon is 6.1e+06 M⁻¹ s⁻¹ and the “relative activity IL2Rβ (KD: fold)” value is 4910 fold. In addition, in the experiment with human IL2Rα [2], the dissociation constant (Kd) was 12.6 nM and the “relative activity IL2Rα (KD: fold)” value is -1.3 fold.

B3: EP123 (ligand)
chain: B1 chain with R38V, Y45F, E81R, S83R, V85L, L92I, Q94L, C125S
B3: in the experiment with human IL2Rα [3], the “RU (at 100 nM)” value was determined as 5.3 RU and the “Relevant binding to WT IL2 (%)” value came out at 3.73%. In addition, the binding result with human IL2Rα [4] is on record as “no binding (tested: supernatant, concentration not given)”.

B4: EP126 (ligand)
chain: B1 chain with R38N, Y45S, E81R, S83R, V85L, L92I, Q94L, C125S
In the case of B4, in the experiment with human IL2Rα [3], the “RU (at 100 nM)” value amounted to 2.6 RU and the “Relevant binding to WT IL2 (%)” value came out at 1.83%. Besides, the binding result with human IL2Rα [4] was “no binding (tested: supernatant, concentration not given)”.

B5: EP105 (ligand)
chain: B1 chain with K35E, R38I, F42P, E81R, S83R, V85L, L92I, Q94L, C125S
For the molecule B5, in the experiment with human IL2Rα [3], the “RU (at 100 nM)” value is 2.1 RU and the “Relevant binding to WT IL2 (%)” value was 1.48%. Also, the binding result with human IL2Rα [4] is on record as “no binding (tested: supernatant, concentration not given)”.

B6: EP004 (ligand)
chain: B1 chain with E81C, S83T, V85T, S87E, N90T, V93I
notes: Produced in E. coli or mammalian cells; not shown: C-terminal Flag and 6xHis tags
Regarding B6, in the experiment with human IL2Rβ [1], the equilibrium dissociation constant (Kd) came out at 0.62 nM, the koff amounted to 0.00189 s⁻¹, the kon came out at 3.05e+06 M⁻¹ s⁻¹ and the “relative activity IL2Rβ (KD: fold)” value was found to be 7010 fold. In the experiment with human IL2Rα [2], binding was put at a Kd of 40.5 nM and the “relative activity IL2Rα (KD: fold)” value is -4.3 fold. Moreover, in the experiment with human IL2Rβ [5], the Kd stood at 0.414 nM, the koff was found to be 0.00215 s⁻¹, the kon stood at 5.18e+06 M⁻¹ s⁻¹ and the “relative activity IL2Rβ (KD: fold)” value is 2420 fold. In addition, in the experiment with human IL2Rα [6], the dissociation constant (Kd) stood at 28.8 nM and the “relative activity IL2Rα (KD: fold)” value was -2.1 fold.

B7: EP113 (ligand)
chain: B1 chain with R38Y, F42R, E81R, S83R, V85L, L92I, Q94L, C125S
With B7, in the experiment with human IL2Rα [3], the “RU (at 100 nM)” value was 2.6 RU and the “Relevant binding to WT IL2 (%)” value was 1.83%. Besides, the binding result in the experiment with human IL2Rα [4] is “no binding (tested: supernatant, concentration not given)”.

B8: EP108 (ligand)
chain: B1 chain with F42H, Y45V, E81R, S83R, V85L, L92I, Q94L, C125S
With B8, in the experiment with human IL2Rα [3], the “RU (at 100 nM)” value is 2.4 RU and the “Relevant binding to WT IL2 (%)” value came out at 1.69%. In addition, the binding result in the experiment with human IL2Rα [4] is “no binding (tested: supernatant, concentration not given)”.

B9: EP119 (ligand)
chain: B1 chain with R38G, Y45S, E81R, S83R, V85L, L92I, Q94L, C125S
Turning to B9, in the experiment with human IL2Rα [3], the “RU (at 100 nM)” value turned out to be 2.7 RU and the “Relevant binding to WT IL2 (%)” value was determined as 1.9%. In addition, the binding result with human IL2Rα [4] is “no binding (tested: supernatant, concentration not given)”.

B10: EP006 (ligand)
chain: B1 chain with E81G, P82V, S83G, V85T, S87D, Q94K
notes: also called EPIM-06; not shown: C-terminal Flag and 6xHis tags
In the case of B10, in the experiment with human IL2Rβ [1], the Kd was found to be 3.1 nM, the dissociation rate constant (koff) turned out to be 0.00254 s⁻¹, the kon is 819000 M⁻¹ s⁻¹ and the “relative activity IL2Rβ (KD: fold)” value worked out at 1400 fold. In the experiment with human IL2Rα [2], the Kd turned out to be 481 nM and the “relative activity IL2Rα (KD: fold)” value is -50.6 fold.

B11: EP122 (ligand)
chain: B1 chain with R38V, Y45P, E81R, S83R, V85L, L92I, Q94L, C125S
For B11, in the experiment with human IL2Rα [3], the “RU (at 100 nM)” value was found to be 2.5 RU and the “Relevant binding to WT IL2 (%)” value turned out to be 1.76%. In the experiment with human IL2Rα [4], the binding result is “no binding (tested: supernatant, concentration not given)”.

B12: EP115 (ligand)
chain: B1 chain with I28L, R38S, Y45S, E81R, S83R, V85L, L92I, Q94L, C125S
Turning to B12, in the experiment with human IL2Rα [3], the “RU (at 100 nM)” value amounted to 2.4 RU and the “Relevant binding to WT IL2 (%)” value turned out to be 1.69%. Further, the binding result with human IL2Rα [4] is “no binding (tested: supernatant, concentration not given)”.

B13: EP080 (Fc fusion)
chain: APTSSSTKETQLQLKHLLLDLQMILNGINNYKNPKLTRMLTFKFYMPKKATELKHLQCLEEELKPLEEVLNLAQSKNFHLKWGDAVSNARVLAGALKGSETTFMCEYADETATIVEFLNRWITFCQSIISTLTEPKSCDKTHTCPLCPAPEAAGGPSVFLFPPKPKDTLMISRTPEVTCVVVDVSHEDPEVKFNWYVDGVEVHNAKTKPREEQYNSTYRVVSVLTVLHQDWLNGKEYKCKVSNKALGAPIEKTISKAKGQPREPQVYTLPPSRDELTKNQVSLTCLVKGFYPSDIAVEWESNGQPENNYKATPPVLDSDGSFFLYSKLTVDKSRWQQGNVFSCSVMHEALHNHYTQKSLSLSPGK
A word on the EC50: it is the concentration at which the effect is half-maximal. Higher therefore signals lower potency in that assay. As to B13, in the experiment with human IL2Rβ [7], the EC50 was 0.23 nM and the “relative activity IL2Rβ (EC50: fold) against EP085” value was 1280 fold. In the experiment with human IL2Rα [8], the 50% effective concentration (EC50) amounted to 0.056 nM and the “relative activity IL2Rα (EC50: fold) against EP085” value was -1.17 fold.

B14: EP226 (ligand)
chain: APTSSSTKKTQLQLEHLLLDLQMILNGINNYKNPKLTRMLTAKFYMPKKATELKHLQCLEEELKPLEEVLNLAQSKNFHLGVTDSISNAIVLARELKGSETTFMCEYADETATIVEFLNRWITFSQSIISTLTGSHHHHHH
Regarding B14, in the experiment with human IL2Rα [3], the “RU (at 100 nM)” value is 3 RU and the “Relevant binding to WT IL2 (%)” value worked out at 2.11%. The binding result with human IL2Rα [4] is listed as “no binding (tested: supernatant, concentration not given)”.

The values above are taken from patent US20230002466A1 (ELPIS BIOPHARMACEUTICALS, published 2023).
